{"source": "paper PMC10899635", "about": "“Q586B2 is a crucial virulence factor during the early stages of Trypanosoma brucei infection that is conserved amongst trypanosomatids” (Nature Communications, 2024)", "target": "recombinant Q586B2 protein (Trypanosoma brucei brucei)", "test": "SEC; size exclusion chromatography after IMAC; uniform peak of approximately 55 kDa"}
{"substance": "recombinant Q586B2 protein (natural protein)", "values": [{"measurement": "stoichiometry N", "value": 4}]}
